46 substances from EP4039268A1 can be followed below.

The target of assay [1] is monomeric SARS-CoV-2 receptor binding domain (RBD-H6) (SARS-CoV-2) (UniProt P0DTC2). As to the kind of experiment: ELISA screen. A general note: ELISA stands for enzyme-linked immunosorbent assay.
Assay [2] has as its target human recombinant soluble ACE2 (human) (UniProt Q9BYF1). The assay can be described thus: ELISA screen.
The target in assay [3] is full-length trimeric SARS-CoV-2 Spike protein (Spike-H6) (SARS-CoV-2). The assay can be described thus: ELISA screen.
The target is the same in assay [4]. The assay can be described thus: AFM single molecule force spectroscopy, Evans model.
For assay [5] the target is unchanged. As to the kind of experiment: high-speed AFM, from volumes.
Assay [6] shares this target. As to the kind of experiment: SPR, Spike immobilized, bivalent analyte model, first binding step.
The target is the same in assay [7]. As to the kind of experiment: inhibition of Spike binding to Vero E6 cells, AFM.

Sequence of human CLEC4G-hIgG1 Fc-fusion protein (Fc fusion) (Q6UXB4 53-293, form in doubt): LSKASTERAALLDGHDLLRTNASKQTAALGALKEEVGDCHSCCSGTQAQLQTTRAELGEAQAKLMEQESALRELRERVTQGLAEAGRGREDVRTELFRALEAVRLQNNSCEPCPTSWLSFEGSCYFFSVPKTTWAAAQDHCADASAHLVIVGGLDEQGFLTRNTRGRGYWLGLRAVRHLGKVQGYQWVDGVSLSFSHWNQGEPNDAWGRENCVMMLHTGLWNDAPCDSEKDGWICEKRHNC
Sequence of human recombinant soluble ACE2 (human) (Q9BYF1 18-740 limits assumed): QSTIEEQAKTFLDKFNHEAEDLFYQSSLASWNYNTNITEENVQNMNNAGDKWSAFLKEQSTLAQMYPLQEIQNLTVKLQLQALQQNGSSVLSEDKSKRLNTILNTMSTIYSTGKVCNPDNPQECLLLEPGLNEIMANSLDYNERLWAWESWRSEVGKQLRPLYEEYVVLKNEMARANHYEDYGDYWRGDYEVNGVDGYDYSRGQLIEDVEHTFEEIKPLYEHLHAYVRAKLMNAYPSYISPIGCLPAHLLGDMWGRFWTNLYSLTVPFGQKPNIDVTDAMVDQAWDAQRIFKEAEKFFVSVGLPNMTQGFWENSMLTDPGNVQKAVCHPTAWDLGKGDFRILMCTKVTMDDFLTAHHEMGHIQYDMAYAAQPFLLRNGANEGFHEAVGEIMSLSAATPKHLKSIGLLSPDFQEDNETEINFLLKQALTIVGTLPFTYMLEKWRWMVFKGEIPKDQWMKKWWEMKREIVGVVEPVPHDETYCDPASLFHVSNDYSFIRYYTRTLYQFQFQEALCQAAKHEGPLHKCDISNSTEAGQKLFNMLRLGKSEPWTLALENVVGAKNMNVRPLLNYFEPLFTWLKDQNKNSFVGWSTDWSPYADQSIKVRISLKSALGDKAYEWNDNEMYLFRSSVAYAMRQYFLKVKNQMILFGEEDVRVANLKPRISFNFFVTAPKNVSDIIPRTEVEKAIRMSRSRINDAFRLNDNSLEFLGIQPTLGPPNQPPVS
Sequence of Ly75_1 CRD-mouse IgG2a-Fc fusion protein (Q60767 other isoform, or with tags, fused parts or gaps limits assumed): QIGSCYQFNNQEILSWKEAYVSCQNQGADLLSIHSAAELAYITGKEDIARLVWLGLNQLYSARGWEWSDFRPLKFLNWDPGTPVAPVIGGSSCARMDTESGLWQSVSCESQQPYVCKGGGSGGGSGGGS
Sequence of Clec2g CRD-mouse IgG2a-Fc fusion protein (Q9D676 other isoform, or with tags, fused parts or gaps limits assumed): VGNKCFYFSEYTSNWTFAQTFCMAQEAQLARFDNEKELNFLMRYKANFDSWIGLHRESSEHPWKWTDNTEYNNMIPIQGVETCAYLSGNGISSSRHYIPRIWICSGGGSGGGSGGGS
Sequence of Asgr1 CRD-mouse IgG2a-Fc fusion protein (P34927 other isoform, or with tags, fused parts or gaps limits assumed): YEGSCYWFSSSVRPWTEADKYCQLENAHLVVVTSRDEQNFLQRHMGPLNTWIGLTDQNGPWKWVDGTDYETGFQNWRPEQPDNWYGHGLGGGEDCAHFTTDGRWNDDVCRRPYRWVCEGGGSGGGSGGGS
Sequence of Clec4g CRD-mouse IgG2a-Fc fusion protein (Q8BNX1 other isoform, or with tags, fused parts or gaps limits assumed): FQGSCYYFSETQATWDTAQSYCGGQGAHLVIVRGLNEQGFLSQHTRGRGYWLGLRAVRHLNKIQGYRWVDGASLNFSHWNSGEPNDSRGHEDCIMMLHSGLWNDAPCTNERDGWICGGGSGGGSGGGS
Sequence of Lgals6_2 CRD-mouse IgG2a-Fc fusion protein (O54891 other isoform, or with tags, fused parts or gaps limits assumed): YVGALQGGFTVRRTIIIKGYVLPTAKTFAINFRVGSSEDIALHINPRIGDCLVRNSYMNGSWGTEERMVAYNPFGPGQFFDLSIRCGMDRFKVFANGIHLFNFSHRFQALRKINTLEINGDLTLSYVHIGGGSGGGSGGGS
Sequence of Ly75_5 CRD-mouse IgG2a-Fc fusion protein (Q60767 other isoform, or with tags, fused parts or gaps limits assumed): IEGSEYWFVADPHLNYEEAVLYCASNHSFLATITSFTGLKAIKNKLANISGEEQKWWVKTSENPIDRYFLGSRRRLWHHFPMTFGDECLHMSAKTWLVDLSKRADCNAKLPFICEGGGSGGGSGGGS
Sequence of Ly75_2 CRD-mouse IgG2a-Fc fusion protein (Q60767 other isoform, or with tags, fused parts or gaps limits assumed): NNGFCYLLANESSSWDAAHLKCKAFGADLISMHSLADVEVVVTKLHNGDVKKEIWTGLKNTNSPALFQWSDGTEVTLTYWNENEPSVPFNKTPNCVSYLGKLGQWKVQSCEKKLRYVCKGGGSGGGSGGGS
Sequence of Clec2h CRD-mouse IgG2a-Fc fusion protein (Q8C1T8 other isoform, or with tags, fused parts or gaps limits assumed): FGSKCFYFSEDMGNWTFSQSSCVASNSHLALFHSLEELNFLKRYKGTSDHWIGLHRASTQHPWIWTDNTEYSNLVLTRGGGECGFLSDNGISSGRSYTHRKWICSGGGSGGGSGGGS
Sequence of Olr1 CRD-mouse IgG2a-Fc fusion protein (Q9EQ09 other isoform, or with tags, fused parts or gaps limits assumed): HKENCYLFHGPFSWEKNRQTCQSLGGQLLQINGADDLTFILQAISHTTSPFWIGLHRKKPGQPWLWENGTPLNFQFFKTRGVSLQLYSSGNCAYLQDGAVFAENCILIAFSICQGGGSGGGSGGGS
Sequence of Clec2i CRD-mouse IgG2a-Fc fusion protein (Q9WVF9 other isoform, or with tags, fused parts or gaps limits assumed): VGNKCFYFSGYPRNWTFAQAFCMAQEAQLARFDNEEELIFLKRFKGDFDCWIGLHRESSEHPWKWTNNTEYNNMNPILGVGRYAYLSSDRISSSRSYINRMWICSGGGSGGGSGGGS
Sequence of Ncan CRD-mouse IgG2a-Fc fusion protein (P55066 other isoform, or with tags, fused parts or gaps limits assumed): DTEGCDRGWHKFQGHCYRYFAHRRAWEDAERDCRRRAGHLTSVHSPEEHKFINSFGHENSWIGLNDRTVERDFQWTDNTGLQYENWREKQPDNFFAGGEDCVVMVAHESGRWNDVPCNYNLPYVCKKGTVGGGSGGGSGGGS
Sequence of Bcan CRD-mouse IgG2a-Fc fusion protein (Q61361 other isoform, or with tags, fused parts or gaps limits assumed): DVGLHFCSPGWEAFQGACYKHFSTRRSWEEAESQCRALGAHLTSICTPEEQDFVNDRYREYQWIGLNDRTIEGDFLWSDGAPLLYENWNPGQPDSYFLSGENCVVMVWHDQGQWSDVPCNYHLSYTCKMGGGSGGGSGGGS
Sequence of Lgals4_1 CRD-mouse IgG2a-Fc fusion protein (Q8K419 other isoform, or with tags, fused parts or gaps limits assumed): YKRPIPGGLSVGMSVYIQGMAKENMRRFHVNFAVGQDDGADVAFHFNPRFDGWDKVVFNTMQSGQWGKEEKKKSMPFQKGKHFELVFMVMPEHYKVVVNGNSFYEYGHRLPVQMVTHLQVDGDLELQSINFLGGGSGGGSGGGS

In assay [1], “Asgr1 CRD-mouse IgG2a-Fc fusion protein (from UniProt P34927 160-277)” displayed a Mean normalized OD of 0.697 OD.

Take “Bcan CRD-mouse IgG2a-Fc fusion protein (from UniProt Q61361 658-786)”: in assay [1], the Mean normalized OD is 0.101 OD.

For “Cd33 CRD-mouse IgG2a-Fc fusion protein (from UniProt Q63994 17-120)”, the Mean normalized OD was found to be 0.216 OD in assay [2], 0.023 OD in assay [3] and 0.009 OD in assay [1].

In the case of “Cd93 CRD-mouse IgG2a-Fc fusion protein (from UniProt O89103 31-173)”, the Mean normalized OD in assay [2] is -0.163 OD; in assay [3], 0 OD; in assay [1], -0.005 OD.

In the case of “Cd209f CRD-mouse IgG2a-Fc fusion protein”, the Mean normalized OD in assay [2] came to 0.182 OD; in assay [3] it was 0.018 OD; in assay [1], 0.015 OD.

As for “Clec2f CRD-mouse IgG2a-Fc fusion protein”, the Mean normalized OD in assay [2] was -0.261 OD; in assay [3], -0.02 OD; in assay [1], 0.045 OD.

For “Clec2g CRD-mouse IgG2a-Fc fusion protein (from UniProt Q9D676 150-254)”, the Mean normalized OD in assay [1] was 0.421 OD.

In assay [1], “Clec2h CRD-mouse IgG2a-Fc fusion protein (from UniProt Q8C1T8 97-201)” gave a Mean normalized OD of 0.237 OD.

As for “Clec2i CRD-mouse IgG2a-Fc fusion protein (from UniProt Q9WVF9 99-203)”, in assay [1], the Mean normalized OD turned out to be 0.178 OD.

Take “Clec2j CRD-mouse IgG2a-Fc fusion protein”: the values for the Mean normalized OD in assay [2], in assay [3] and in assay [1] were 0.059 OD, 0.006 OD and 0.005 OD, respectively.

For “Clec4a1 CRD-mouse IgG2a-Fc fusion protein”, the Mean normalized OD was -0.004 OD in assay [2], 0.014 OD in assay [3] and 0.024 OD in assay [1].

Regarding “Clec4a3 CRD-mouse IgG2a-Fc fusion protein”, the Mean normalized OD stood at 0.001 OD in assay [2], 0.002 OD in assay [3] and 0.002 OD in assay [1].

Take “Clec4a4 CRD-mouse IgG2a-Fc fusion protein”: the figures for the Mean normalized OD in assay [2], in assay [3] and in assay [1] were -0.009 OD, 0.004 OD and 0.007 OD, respectively.

As for “Clec4a CRD-mouse IgG2a-Fc fusion protein (from UniProt Q9QZ15 126-233)”, the Mean normalized OD in assay [2] is 0.062 OD; in assay [3], 0.014 OD; in assay [1] it was 0.036 OD.

Regarding “Clec4b1 CRD-mouse IgG2a-Fc fusion protein”, the Mean normalized OD is 0.001 OD in assay [2], 0.013 OD in assay [3] and 0.023 OD in assay [1].

On to “Clec4b2 CRD-mouse IgG2a-Fc fusion protein”, for which the Mean normalized OD is 0.008 OD in assay [2], -0.013 OD in assay [3] and 0.003 OD in assay [1].

Consider “Clec4f CRD-mouse IgG2a-Fc fusion protein (from UniProt P70194 438-538)”, for which the Mean normalized OD in assay [2] was 0.194 OD; in assay [3] it was -0.146 OD; in assay [1], 0.362 OD.

With “Clec4g CRD-mouse IgG2a-Fc fusion protein (from UniProt Q8BNX1 172-287)”, the Mean normalized OD in assay [1] was found to be 0.451 OD.

As for “Colec12 CRD-mouse IgG2a-Fc fusion protein (from UniProt Q8K4Q8 614-731)”, in assay [2], the Mean normalized OD was determined as 0.317 OD.

Consider “Fcer2a CRD-mouse IgG2a-Fc fusion protein (from UniProt P20693 185-298)”, for which the Mean normalized OD in assay [2] is -0.004 OD; in assay [3], 0.007 OD; in assay [1] it was 0 OD.

For the substance Gm156 CRD-mouse IgG2a-Fc fusion protein, the Mean normalized OD worked out at 0.009 OD in assay [2], 0.074 OD in assay [3] and 0.048 OD in assay [1].

As for IgG2a, the results for the Mean normalized OD in assay [2], in assay [3] and in assay [1] were -0.003 OD, 0.001 OD and 0 OD, respectively.

For the substance “Klrb1b_1 CRD-mouse IgG2a-Fc fusion protein”, the Mean normalized OD in assay [2] worked out at 0.003 OD; in assay [3] it was 0.001 OD; in assay [1] it was 0.002 OD.

Take Klrc1 CRD-mouse IgG2a-Fc fusion protein: the Mean normalized OD is 0.039 OD in assay [2], 0.006 OD in assay [3] and 0.01 OD in assay [1].

As for Klrc2 CRD-mouse IgG2a-Fc fusion protein, the Mean normalized OD in assay [2] came out at 0.104 OD; in assay [3], 0.025 OD; in assay [1], 0.035 OD.

As for Klrc3 CRD-mouse IgG2a-Fc fusion protein, the values for the Mean normalized OD in assay [2], in assay [3] and in assay [1] were 0.086 OD, -0.007 OD and 0.061 OD, respectively.

In assay [1], “Lgals4_1 CRD-mouse IgG2a-Fc fusion protein (from UniProt Q8K419 19-150)” showed a Mean normalized OD of 0.143 OD.

As for “Lgals6_2 CRD-mouse IgG2a-Fc fusion protein (from UniProt O54891 173-301)”, the results for the Mean normalized OD in assay [2] and in assay [1] were 0.528 OD and 0.073 OD, respectively.

Turning to “Lgals9_2 CRD-mouse IgG2a-Fc fusion protein (from UniProt O08573 225-353)”, the Mean normalized OD in assay [2] came out at 0.367 OD.

Substance “Ly75_1 CRD-mouse IgG2a-Fc fusion protein (from UniProt Q60767 225-341)” showed a Mean normalized OD in assay [1] of 0.29 OD.

For “Ly75_2 CRD-mouse IgG2a-Fc fusion protein (from UniProt Q60767 368-486)”, in assay [1], the Mean normalized OD is -0.206 OD.

“Ly75_5 CRD-mouse IgG2a-Fc fusion protein (from UniProt Q60767 818-932)” had a Mean normalized OD in assay [1] of 0.14 OD.

Turning to “Mag CRD-mouse IgG2a-Fc fusion protein (from UniProt P20917 22-120)”, the figures for the Mean normalized OD in assay [2], in assay [3] and in assay [1] were 0.032 OD, 0.008 OD and 0.004 OD, respectively.

On to “Mbl1 CRD-mouse IgG2a-Fc fusion protein (from UniProt P39039 144-239)”, for which the Mean normalized OD came out at 0.098 OD in assay [2], 0.043 OD in assay [3] and 0.019 OD in assay [1].

With Mgl2 CRD-mouse IgG2a-Fc fusion protein, the Mean normalized OD is 0.145 OD in assay [2], 0.598 OD in assay [3] and 1.31 OD in assay [1].

With “Ncan CRD-mouse IgG2a-Fc fusion protein (from UniProt P55066 1036-1165)”, the Mean normalized OD in assay [1] turned out to be 0.279 OD.

“Olr1 CRD-mouse IgG2a-Fc fusion protein (from UniProt Q9EQ09 242-355)”: the Mean normalized OD in assay [1] is 0.379 OD.

Consider Prg2 CRD-mouse IgG2a-Fc fusion protein, for which the Mean normalized OD in assay [2] is -0.014 OD; in assay [3] it was 0.009 OD; in assay [1] it was 0.001 OD.

For the substance Prg3 CRD-mouse IgG2a-Fc fusion protein, the Mean normalized OD in assay [2] was -0.298 OD; in assay [3], -0.271 OD; in assay [1], -0.057 OD.

In the case of Reg3d CRD-mouse IgG2a-Fc fusion protein, the Mean normalized OD turned out to be 0.152 OD in assay [2], 0.019 OD in assay [3] and 0.019 OD in assay [1].

For the substance “Siglec5 CRD-mouse IgG2a-Fc fusion protein”, the Mean normalized OD was 0.146 OD in assay [2], 0.041 OD in assay [3] and 0.019 OD in assay [1].

In the case of “Siglec10 CRD-mouse IgG2a-Fc fusion protein (from UniProt Q80ZE3 26-138)”, in assay [2], the Mean normalized OD worked out at 0.299 OD.

“Siglech CRD-mouse IgG2a-Fc fusion protein”: the Mean normalized OD in assay [2] was -0.003 OD; in assay [3], 0.003 OD; in assay [1] it was 0 OD.

On to “Vcan CRD-mouse IgG2a-Fc fusion protein (from UniProt Q62059 3138-3252)”, for which the Mean normalized OD in assay [2] amounted to 0.332 OD.

Turning to “human CD209-hIgG1 Fc-fusion protein (from UniProt Q9NNX6 62-404) (Fc fusion)”, in assay [4], the koff – broadly, a measure of how fast the partners let go of each other – was 0.008 s⁻¹ and the xβ (length of dissociation path) amounted to 0.73 nm. The molecules bound per trimeric Spike (average) (molecules per trimeric Spike) in assay [5] was determined as 3.6. Moreover, in assay [6], the Kd worked out at 2390 nM, the off-rate (koff) amounted to 0.0316 s⁻¹ and the kon (commonly the rate constant with which the complex forms) worked out at 13200 M⁻¹ s⁻¹.

In assay [4], “human CLEC4G-hIgG1 Fc-fusion protein (Fc fusion)” registered a dissociation rate constant (koff) of 0.007 s⁻¹ and a xβ (length of dissociation path) of 0.64 nm. For the same substance, in assay [5], the molecules bound per trimeric Spike (average) (molecules per trimeric Spike) was 3.5. In assay [6], this substance displayed a Kd of 259 nM, a dissociation rate constant (koff) of 0.0201 s⁻¹ and a kon of 77700 M⁻¹ s⁻¹. Also, the Ki (commonly the equilibrium dissociation constant of an inhibitor or competing ligand from its target) in assay [7] was in the range of 35 to 70 nM.
